Measurements from PMC9482650, “Quantitative fragmentomics allow affinity mapping of interactomes” (Nature Communications, 2022).

Tests used:
Assay in all cases: holdup assay
Design in all cases: key: below the threshold = too weak to quantify, mostly under pKd 3.1 to 4
APBA1_2, Q02410 = target: T1, APBA1_2, Q02410
T1 sequence (Q02410 742-832, limits assumed, looked up): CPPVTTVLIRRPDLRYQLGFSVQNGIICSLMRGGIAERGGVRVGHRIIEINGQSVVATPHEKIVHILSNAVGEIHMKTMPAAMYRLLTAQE

APBA2_2, Q99767 = target: T2, APBA2_2, Q99767
T2 sequence (Q99767 654-744, limits assumed, looked up): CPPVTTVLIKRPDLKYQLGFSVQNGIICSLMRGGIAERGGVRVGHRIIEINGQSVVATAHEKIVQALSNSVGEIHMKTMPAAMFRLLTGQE

ARHGEF11, O15085 = target: T3, ARHGEF11, O15085
T3 sequence (O15085 42-136, limits assumed, looked up): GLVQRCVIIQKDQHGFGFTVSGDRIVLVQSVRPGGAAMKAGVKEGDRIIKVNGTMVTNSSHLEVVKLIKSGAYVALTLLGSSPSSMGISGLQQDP

DLG4_1, P78352 = target: DLG4_1, P78352
DLG4_2, P78352 = target: DLG4_2, P78352
GIPC2, Q8TF65 = target: GIPC2, Q8TF65
GRIP1_2, Q9Y3R0 = target: T4, GRIP1_2, Q9Y3R0
T4 sequence (Q9Y3R0 145-248, limits assumed, looked up): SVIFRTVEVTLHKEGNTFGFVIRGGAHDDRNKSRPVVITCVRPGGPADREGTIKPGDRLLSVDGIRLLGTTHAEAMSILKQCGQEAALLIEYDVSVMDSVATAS

GRIP2_4, Q9C0E4 = target: GRIP2_4, Q9C0E4
IL16_4, Q14005 = target: IL16_4, Q14005
Inadl_2, Q8NI35 = target: Inadl_2, Q8NI35
Inadl_4, Q8NI35 = target: Inadl_4, Q8NI35
Inadl_8, Q8NI35 = target: Inadl_8, Q8NI35
LIN7A, O14910 = target: T5, LIN7A, O14910
T5 sequence (O14910 103-200, limits assumed, looked up): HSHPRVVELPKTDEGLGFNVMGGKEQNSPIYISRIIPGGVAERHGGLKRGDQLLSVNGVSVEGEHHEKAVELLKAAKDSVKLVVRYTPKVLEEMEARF

LNX2_2, Q8N448 = target: T6, LNX2_2, Q8N448
T6 sequence (Q8N448 334-432, limits assumed, looked up): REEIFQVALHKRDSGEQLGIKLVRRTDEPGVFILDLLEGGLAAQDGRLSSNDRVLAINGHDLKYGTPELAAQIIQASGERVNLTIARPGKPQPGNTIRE

MAGI1_1, Q96QZ7 = target: MAGI1_1, Q96QZ7
MPP7, Q5T2T1 = target: T7, MPP7, Q5T2T1
T7 sequence (Q5T2T1 134-230, limits assumed, looked up): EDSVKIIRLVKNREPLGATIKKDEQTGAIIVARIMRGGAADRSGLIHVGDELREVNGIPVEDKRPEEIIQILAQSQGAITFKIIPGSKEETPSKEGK

NHERF3_3, Q5T2W1 = target: T8, NHERF3_3, Q5T2W1
T8 sequence (Q5T2W1 238-333, limits assumed, looked up): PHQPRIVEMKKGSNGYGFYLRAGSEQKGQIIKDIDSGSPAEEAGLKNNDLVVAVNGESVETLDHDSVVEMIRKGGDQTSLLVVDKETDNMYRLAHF

NOS1, P29475 = target: NOS1, P29475
PARD3_3, Q8TEW0 = target: PARD3_3, Q8TEW0
PDZRN4_1, Q6ZMN7 = target: PDZRN4_1, Q6ZMN7
PICK1, Q9NRD5 = target: PICK1, Q9NRD5
PTPN13_1, Q12923 = target: T9, PTPN13_1, Q12923
T9 sequence (Q12923 1088-1188, limits assumed, looked up): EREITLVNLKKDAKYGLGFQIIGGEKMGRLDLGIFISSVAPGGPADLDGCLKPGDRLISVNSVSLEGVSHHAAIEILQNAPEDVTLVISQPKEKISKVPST

SNTA1, Q13424 = target: T10, SNTA1, Q13424
T10 sequence (Q13424 82-180, limits assumed, looked up): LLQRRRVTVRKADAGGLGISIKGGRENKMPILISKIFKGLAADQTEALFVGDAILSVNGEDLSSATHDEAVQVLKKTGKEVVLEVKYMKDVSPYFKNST

SNTG1, Q9NSN8 = target: T11, SNTG1, Q9NSN8
T11 sequence (Q9NSN8 52-150, limits assumed, looked up): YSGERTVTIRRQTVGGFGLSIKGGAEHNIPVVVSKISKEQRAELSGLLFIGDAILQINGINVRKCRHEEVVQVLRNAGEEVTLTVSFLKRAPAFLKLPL

SNX27, Q96L92 = target: SNX27, Q96L92
SYNJ2BP, P57105 = target: T12, SYNJ2BP, P57105
T12 sequence (P57105 8-110, limits assumed, looked up): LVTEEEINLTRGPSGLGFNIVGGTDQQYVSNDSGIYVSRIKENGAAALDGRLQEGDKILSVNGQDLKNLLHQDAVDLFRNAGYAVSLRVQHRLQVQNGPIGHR

[1] = plain residues with an end cap or a label only (N-terminal biotin on a linker: ahx)
[2] = plain residues with an end cap or a label only (N-terminal biotin on a linker: ttds)

Measured: pKd

Sequence of Inadl_2, Q8NI35 (Q8NI35 238-335): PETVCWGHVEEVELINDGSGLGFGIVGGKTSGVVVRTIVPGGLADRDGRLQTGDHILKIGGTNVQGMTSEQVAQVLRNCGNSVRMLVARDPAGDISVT
Sequence of GIPC2, Q8TF65 (Q8TF65 112-203): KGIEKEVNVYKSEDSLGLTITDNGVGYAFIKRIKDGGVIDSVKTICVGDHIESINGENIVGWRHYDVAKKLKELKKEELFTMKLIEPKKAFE
Sequence of Inadl_8, Q8NI35 (Q8NI35 1425-1530): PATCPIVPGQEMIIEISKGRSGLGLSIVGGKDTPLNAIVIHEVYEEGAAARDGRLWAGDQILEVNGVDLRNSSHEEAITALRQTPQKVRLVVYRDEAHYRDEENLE
Sequence of GRIP2_4, Q9C0E4 (Q9C0E4 446-548): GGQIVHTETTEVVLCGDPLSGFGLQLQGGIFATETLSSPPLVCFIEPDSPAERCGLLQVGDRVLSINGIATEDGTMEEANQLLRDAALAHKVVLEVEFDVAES
Sequence of Inadl_4, Q8NI35 (Q8NI35 547-651): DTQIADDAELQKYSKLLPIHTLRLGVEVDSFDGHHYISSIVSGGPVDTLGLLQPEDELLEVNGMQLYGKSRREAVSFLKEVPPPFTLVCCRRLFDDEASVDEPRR
Sequence of NOS1, P29475 (P29475 9-101): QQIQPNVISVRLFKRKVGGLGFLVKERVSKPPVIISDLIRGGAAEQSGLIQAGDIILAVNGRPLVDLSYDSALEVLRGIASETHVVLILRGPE
Sequence of MAGI1_1, Q96QZ7 (Q96QZ7 1-106): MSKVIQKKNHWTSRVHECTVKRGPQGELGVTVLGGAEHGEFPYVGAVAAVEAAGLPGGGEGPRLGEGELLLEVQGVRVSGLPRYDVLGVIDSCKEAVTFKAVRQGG
Sequence of DLG4_1, P78352 (P78352 62-152): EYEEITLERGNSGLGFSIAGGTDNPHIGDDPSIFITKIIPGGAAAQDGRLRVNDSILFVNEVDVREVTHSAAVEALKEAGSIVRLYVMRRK
Sequence of IL16_4, Q14005 (Q14005 1229-1329): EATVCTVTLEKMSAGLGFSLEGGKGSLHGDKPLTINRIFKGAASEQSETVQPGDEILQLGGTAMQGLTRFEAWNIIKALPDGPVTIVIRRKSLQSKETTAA
Sequence of PICK1, Q9NRD5 (Q9NRD5 17-115): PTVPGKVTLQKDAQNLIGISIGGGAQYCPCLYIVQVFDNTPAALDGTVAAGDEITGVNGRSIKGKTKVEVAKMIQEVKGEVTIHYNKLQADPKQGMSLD
Sequence of DLG4_2, P78352 (P78352 155-259): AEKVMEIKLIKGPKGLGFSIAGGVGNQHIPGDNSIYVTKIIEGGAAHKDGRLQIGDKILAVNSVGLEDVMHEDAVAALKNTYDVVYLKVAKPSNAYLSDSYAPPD
Sequence of PDZRN4_1, Q6ZMN7 (Q6ZMN7 213-318): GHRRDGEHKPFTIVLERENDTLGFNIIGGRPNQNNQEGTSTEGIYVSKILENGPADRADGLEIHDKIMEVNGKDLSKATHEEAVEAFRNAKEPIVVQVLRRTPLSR
Sequence of PARD3_3, Q8TEW0 (Q8TEW0 582-685): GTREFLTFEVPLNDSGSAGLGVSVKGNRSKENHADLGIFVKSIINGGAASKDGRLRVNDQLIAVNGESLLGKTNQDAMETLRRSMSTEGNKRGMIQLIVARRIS

RNCSTNDSLL [ADRB2, P07550]
3.6: SNX27, Q96L92; [1]
below the threshold: APBA1_2, Q02410; [1] | APBA2_2, Q99767; [1] | ARHGEF11, O15085; [1] | DLG4_1, P78352; [1] | DLG4_2, P78352; [1] | GIPC2, Q8TF65; [1] | GRIP1_2, Q9Y3R0; [1] | GRIP2_4, Q9C0E4; [1] | IL16_4, Q14005; [1] | Inadl_2, Q8NI35; [1] | Inadl_4, Q8NI35; [1] | Inadl_8, Q8NI35; [1] | LIN7A, O14910; [1] | LNX2_2, Q8N448; [1] | MAGI1_1, Q96QZ7; [1] | MPP7, Q5T2T1; [1] | NHERF3_3, Q5T2W1; [1] | NOS1, P29475; [1] | PDZRN4_1, Q6ZMN7; [1] | PICK1, Q9NRD5; [1] | PTPN13_1, Q12923; [1] | SNTA1, Q13424; [1] | SNTG1, Q9NSN8; [1] | SYNJ2BP, P57105; [1]
3.79: PARD3_3, Q8TEW0; [1]

SSSNSEDTEM [NHERF3, Q5T2W1]
below the threshold: APBA1_2, Q02410; [1] | APBA2_2, Q99767; [1] | ARHGEF11, O15085; [1] | DLG4_1, P78352; [1] | DLG4_2, P78352; [1] | GIPC2, Q8TF65; [1] | GRIP1_2, Q9Y3R0; [1] | GRIP2_4, Q9C0E4; [1] | IL16_4, Q14005; [1] | Inadl_2, Q8NI35; [1] | Inadl_4, Q8NI35; [1] | Inadl_8, Q8NI35; [1] | LIN7A, O14910; [1] | LNX2_2, Q8N448; [1] | MAGI1_1, Q96QZ7; [1] | MPP7, Q5T2T1; [1] | NHERF3_3, Q5T2W1; [1] | NOS1, P29475; [1] | PARD3_3, Q8TEW0; [1] | PDZRN4_1, Q6ZMN7; [1] | PICK1, Q9NRD5; [1] | PTPN13_1, Q12923; [1] | SNTA1, Q13424; [1] | SNTG1, Q9NSN8; [1] | SYNJ2BP, P57105; [1]
4.16: SNX27, Q96L92; [1]

DPLTPSRSQL [DGKK, Q5KSL6]
below the threshold: APBA2_2, Q99767; [2] | ARHGEF11, O15085; [2] | DLG4_1, P78352; [2] | DLG4_2, P78352; [2] | GIPC2, Q8TF65; [2] | GRIP1_2, Q9Y3R0; [2] | GRIP2_4, Q9C0E4; [2] | IL16_4, Q14005; [2] | Inadl_2, Q8NI35; [2] | Inadl_4, Q8NI35; [2] | Inadl_8, Q8NI35; [2] | LIN7A, O14910; [2] | LNX2_2, Q8N448; [2] | MAGI1_1, Q96QZ7; [2] | MPP7, Q5T2T1; [2] | NHERF3_3, Q5T2W1; [2] | NOS1, P29475; [2] | PARD3_3, Q8TEW0; [2] | PDZRN4_1, Q6ZMN7; [2] | PICK1, Q9NRD5; [2] | PTPN13_1, Q12923; [2] | SNTA1, Q13424; [2] | SNTG1, Q9NSN8; [2] | SNX27, Q96L92; [2] | SYNJ2BP, P57105; [2]
3.71: APBA1_2, Q02410; [2]

SPLHSLETSL [ATP2B1, P20020]
4.06: DLG4_1, P78352; [2]
4.91: SYNJ2BP, P57105; [2]
5.24: PDZRN4_1, Q6ZMN7; [2]
4.5: SNTA1, Q13424; [2]
3.77: NOS1, P29475; [2]
3.93: APBA1_2, Q02410; [2]
4.15: DLG4_2, P78352; [2]
4.36: SNTG1, Q9NSN8; [2]
3.82: PARD3_3, Q8TEW0; [2]
4.27: ARHGEF11, O15085; [2]
below the threshold: APBA2_2, Q99767; [2] | GRIP1_2, Q9Y3R0; [2] | GRIP2_4, Q9C0E4; [2] | IL16_4, Q14005; [2] | Inadl_2, Q8NI35; [2] | Inadl_4, Q8NI35; [2] | Inadl_8, Q8NI35; [2] | LIN7A, O14910; [2] | LNX2_2, Q8N448; [2] | MAGI1_1, Q96QZ7; [2] | MPP7, Q5T2T1; [2] | NHERF3_3, Q5T2W1; [2] | PICK1, Q9NRD5; [2] | PTPN13_1, Q12923; [2]
5.48: SNX27, Q96L92; [2]
3.88: GIPC2, Q8TF65; [2]

KTSAHHATFV [RGS12, O14924]
below the threshold: APBA2_2, Q99767; [1] | GIPC2, Q8TF65; [1] | GRIP1_2, Q9Y3R0; [1] | GRIP2_4, Q9C0E4; [1] | IL16_4, Q14005; [1] | Inadl_2, Q8NI35; [1] | Inadl_4, Q8NI35; [1] | LIN7A, O14910; [1] | MAGI1_1, Q96QZ7; [1] | MPP7, Q5T2T1; [1] | NHERF3_3, Q5T2W1; [1] | PARD3_3, Q8TEW0; [1] | PDZRN4_1, Q6ZMN7; [1] | PICK1, Q9NRD5; [1] | PTPN13_1, Q12923; [1]
4.05: SNX27, Q96L92; [1]
4.22: DLG4_1, P78352; [1] | Inadl_8, Q8NI35; [1]
3.63: SNTA1, Q13424; [1]
3.66: NOS1, P29475; [1]
4.26: SYNJ2BP, P57105; [1]
4.62: LNX2_2, Q8N448; [1]
3.6: ARHGEF11, O15085; [1]
4.13: DLG4_2, P78352; [1]
4.87: APBA1_2, Q02410; [1]
3.55: SNTG1, Q9NSN8; [1]
